Data reported in EP1752538A1 (BAYER CORPORATION, dated 1997).
Read-outs that look alike come from different tables or passages of the source. Where no end group is shown, it is not given here.

How the values were obtained:
Bovine chymotrypsin = Bovine chymotrypsin (bovine, UniProt P00766 1-245); assay: enzyme inhibition kinetics, chymotrypsin 5 nM
[1] = target: T1, bovine pancreatic kallikrein (bovine); assay: enzyme inhibition kinetics, kallikrein 92.0 pM
T1 construct: also called immobilized bovine pancreatic kallikrein; kallikrein-sepharose

Tissue Factor VIIa = target: T2, Tissue Factor VIIa; assay: enzyme inhibition
T2 construct: Complex of tissue factor and factor VIIa; no method is described for it; also called tissue factor VIIa complex

human plasmin [2] = target: T3, human plasmin (human, UniProt P00747 97-810); assay: enzyme inhibition kinetics, plasmin 50 pM
T3 construct: Active enzyme
T3 sequence (P00747 97-810 limits assumed): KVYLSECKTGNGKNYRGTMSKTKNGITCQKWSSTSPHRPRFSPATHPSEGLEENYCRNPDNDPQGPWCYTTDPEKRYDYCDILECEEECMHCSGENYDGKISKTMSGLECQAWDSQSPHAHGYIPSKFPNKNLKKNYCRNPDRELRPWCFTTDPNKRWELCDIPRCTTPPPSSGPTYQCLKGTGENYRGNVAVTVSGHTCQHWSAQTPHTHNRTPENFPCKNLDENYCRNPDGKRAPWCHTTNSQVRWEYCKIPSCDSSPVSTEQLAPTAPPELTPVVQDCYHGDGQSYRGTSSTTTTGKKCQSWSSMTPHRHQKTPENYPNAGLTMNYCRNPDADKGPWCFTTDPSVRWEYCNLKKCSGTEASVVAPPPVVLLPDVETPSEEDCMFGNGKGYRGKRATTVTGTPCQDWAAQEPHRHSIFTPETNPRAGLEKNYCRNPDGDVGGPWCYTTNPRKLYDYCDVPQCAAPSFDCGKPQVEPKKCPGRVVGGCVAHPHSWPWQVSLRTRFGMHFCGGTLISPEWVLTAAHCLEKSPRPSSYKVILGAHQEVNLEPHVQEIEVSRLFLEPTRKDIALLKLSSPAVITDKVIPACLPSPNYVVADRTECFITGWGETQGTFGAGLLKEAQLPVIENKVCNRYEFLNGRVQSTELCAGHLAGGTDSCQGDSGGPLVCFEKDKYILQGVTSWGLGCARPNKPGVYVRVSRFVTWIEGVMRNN

[3] = target: T4, bovine trypsin (type III) (bovine, UniProt P00760 24-246); assay: enzyme inhibition kinetics, trypsin 48.5 pM
T4 construct: Active enzyme, active-site titrated
T4 sequence (P00760 24-246): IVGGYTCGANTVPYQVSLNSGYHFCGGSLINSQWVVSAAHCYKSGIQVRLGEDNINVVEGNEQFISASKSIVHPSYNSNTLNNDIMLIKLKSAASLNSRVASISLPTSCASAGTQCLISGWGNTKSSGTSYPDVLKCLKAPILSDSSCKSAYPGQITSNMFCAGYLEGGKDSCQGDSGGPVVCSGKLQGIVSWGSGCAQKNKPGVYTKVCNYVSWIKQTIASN

Factor XIa = target: T5, Factor XIa (Homo sapiens (Human), UniProt P03951 19-387; P03951 388-625, Activated enzyme cleaved after Arg387 of the precursor. The native molecule is a disulfide-linked homodimer of heavy-plu [CUT]); assay: enzyme inhibition kinetics, factor XIa 0.1 nM
T5 construct: also called FXIa
T5 sequence (P03951 19-387 limits assumed, form in doubt, chain 1 of 2): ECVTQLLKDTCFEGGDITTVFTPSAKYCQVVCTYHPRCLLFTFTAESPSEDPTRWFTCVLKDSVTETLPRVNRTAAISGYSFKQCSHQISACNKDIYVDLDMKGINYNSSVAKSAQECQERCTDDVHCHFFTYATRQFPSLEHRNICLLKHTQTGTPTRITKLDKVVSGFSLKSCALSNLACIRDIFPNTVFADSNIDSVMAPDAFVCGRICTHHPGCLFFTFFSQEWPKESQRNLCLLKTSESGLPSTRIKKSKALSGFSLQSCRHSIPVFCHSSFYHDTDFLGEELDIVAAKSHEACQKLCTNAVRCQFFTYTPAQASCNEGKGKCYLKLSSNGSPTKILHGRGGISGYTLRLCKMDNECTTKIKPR
T5 sequence (P03951 388-625 limits assumed, form in doubt, chain 2 of 2): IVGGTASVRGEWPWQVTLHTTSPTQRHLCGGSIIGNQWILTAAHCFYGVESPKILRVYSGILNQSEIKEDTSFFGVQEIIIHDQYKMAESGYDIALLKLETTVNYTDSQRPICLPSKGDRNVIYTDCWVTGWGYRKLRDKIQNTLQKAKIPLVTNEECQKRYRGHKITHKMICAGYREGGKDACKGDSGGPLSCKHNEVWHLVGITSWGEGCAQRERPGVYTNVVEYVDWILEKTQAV

human factor Xa = human factor Xa (human, UniProt P00742 41-488, limits assumed); assay: enzyme inhibition kinetics, factor Xa 0.87 nM
[4] = target: T1, bovine pancreatic kallikrein; assay: enzyme inhibition kinetics, kallikrein 100 pM
human plasma kallikrein = target: T6, human plasma kallikrein (human, UniProt P03952 20-638); assay: enzyme inhibition kinetics, kallikrein 2.5 nM
T6 construct: Active enzyme
T6 sequence (P03952 20-638 limits assumed): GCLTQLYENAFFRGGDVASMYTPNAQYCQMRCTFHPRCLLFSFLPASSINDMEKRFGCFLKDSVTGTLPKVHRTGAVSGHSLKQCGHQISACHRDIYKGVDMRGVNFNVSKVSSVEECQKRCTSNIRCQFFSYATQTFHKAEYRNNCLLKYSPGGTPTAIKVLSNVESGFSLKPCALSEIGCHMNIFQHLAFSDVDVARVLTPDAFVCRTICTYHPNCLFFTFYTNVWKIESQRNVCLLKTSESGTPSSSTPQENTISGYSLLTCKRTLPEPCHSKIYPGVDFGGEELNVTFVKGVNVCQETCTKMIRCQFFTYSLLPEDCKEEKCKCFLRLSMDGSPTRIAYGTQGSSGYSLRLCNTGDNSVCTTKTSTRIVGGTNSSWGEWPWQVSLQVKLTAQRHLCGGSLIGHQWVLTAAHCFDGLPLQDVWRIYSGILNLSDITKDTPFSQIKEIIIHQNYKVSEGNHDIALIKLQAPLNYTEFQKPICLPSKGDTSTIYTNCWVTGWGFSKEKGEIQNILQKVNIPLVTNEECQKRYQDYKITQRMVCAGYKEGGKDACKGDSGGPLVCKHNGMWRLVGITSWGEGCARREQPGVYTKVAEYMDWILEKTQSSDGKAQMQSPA

[5] = target: T7, tissue plasminogen activator (single chain form from human melanoma cell culture) (human, UniProt P00750 36-562, limits assumed); assay: enzyme inhibition, tPA 7.5 nM, chromogenic pNA substrate
T7 construct: also called tPA
T7 sequence (P00750 36-562 limits assumed): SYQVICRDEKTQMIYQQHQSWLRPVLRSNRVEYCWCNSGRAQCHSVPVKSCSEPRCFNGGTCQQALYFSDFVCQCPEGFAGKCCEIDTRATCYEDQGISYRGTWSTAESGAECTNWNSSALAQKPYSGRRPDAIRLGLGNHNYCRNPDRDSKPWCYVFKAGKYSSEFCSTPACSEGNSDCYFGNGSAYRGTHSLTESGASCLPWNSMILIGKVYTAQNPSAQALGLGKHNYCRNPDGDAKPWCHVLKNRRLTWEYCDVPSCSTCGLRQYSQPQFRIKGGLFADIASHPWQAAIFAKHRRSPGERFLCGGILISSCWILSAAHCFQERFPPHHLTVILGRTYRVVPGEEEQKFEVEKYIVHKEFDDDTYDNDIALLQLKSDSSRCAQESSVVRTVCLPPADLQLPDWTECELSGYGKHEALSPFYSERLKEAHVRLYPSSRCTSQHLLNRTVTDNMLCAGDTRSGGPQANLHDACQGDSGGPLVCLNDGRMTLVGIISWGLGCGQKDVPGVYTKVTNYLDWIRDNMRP

human tissue kallikrein = human tissue kallikrein (human, UniProt P06870 25-262); assay: enzyme inhibition kinetics, tissue kallikrein 0.35 nM, PFR-AMC substrate
Sequence of human tissue kallikrein (P06870 25-262 limits assumed): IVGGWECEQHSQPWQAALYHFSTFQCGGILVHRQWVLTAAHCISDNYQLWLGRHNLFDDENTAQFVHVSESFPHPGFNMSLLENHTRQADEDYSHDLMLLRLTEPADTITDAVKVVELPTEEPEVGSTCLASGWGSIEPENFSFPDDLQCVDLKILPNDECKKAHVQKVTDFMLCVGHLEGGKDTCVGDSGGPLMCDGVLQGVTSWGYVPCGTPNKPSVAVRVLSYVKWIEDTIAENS

human plasmin [6] = target: T3, human plasmin; assay: enzyme inhibition kinetics, plasmin 50 pM; remark: listed apart in the source
[7] = target: T4, bovine trypsin (type III); assay: enzyme inhibition kinetics, trypsin 48.5 pM; remark: listed apart in the source

B1: synthetic placental bikunin (7-64), first preparation (other)
chain: IHDFCLVSKVVGRCRASMPRWWYNVTDGSCQLFVYGGCDGNSNNYLTKEECLKKCATV
modifications: ends and bridges not checked; also: may be incompletely deprotected before refolding
notes: also called placental bikunin fragment (7-64); KID1
Bovine chymotrypsin
  Ki: 0.6 nM
[1]
  Ki: 0.4 nM

B2: recombinant placental bikunin (1-170) from baculovirus / Sf9 cells (other)
chain: ADRERSIHDFCLVSKVVGRCRASMPRWWYNVTDGSCQLFVYGGCDGNSNNYLTKEECLKKCATVTENATGDLATSRNAADSSVPSAPRRQDSEDHSSDMFNYEEYCTANAVTGPCRASFPRWYFDVERNSCNNFIYGGCRGNKNSYRSEEACMLRCFRQQENPPLPLGSK
modifications: asparagine 30 silent in sequencing, consistent with glycosylation
notes: signal peptide correctly removed (N-terminus ADRER); also called Recombinant Bikunin; Sf9-derived human placental bikunin (1-170)
Tissue Factor VIIa
  Ki: 800 nM
Human plasmin [2]
  Ki: 0.23 nM
[3]
  Ki: 0.064 nM
Factor XIa
  Ki: 3 nM
Human factor Xa
  Ki: 180 nM
[4]
  Ki: 0.12 nM
Human plasma kallikrein
  Ki: 0.18 nM
[5]
  Ki: < 60 nM
Human tissue kallikrein
  Ki: 0.04 nM

B3: native human placental bikunin isolated from human placenta (other)
chain: ADRERSIHDFCLVSKVVGRCRASMPRWWYNVTDGSCQLFVYGGCDGNSNNYLTKEECLKKCATVTENATGDLATSRNAADSSVPSAPRRQDSEDHSSDMFNYEEYCTANAVTGPCRASFPRWYFDVERNSCNNFIYGGCRGNKNSYRSEEACMLRCFRQQENPPLPLGSKVVVLAGAVS
modifications: asparagine 30 silent in sequencing, likely glycosylated
notes: Soluble protein purified from placenta; A minor species starts at residue 6; also called native Placental Bikunin (1-179)
Human plasmin [6]
  Ki: 1.9 nM
[7]
  Ki: 0.13 nM
